# From the nanobody polyreactivity screen of Harvey et al. (2022)
# Test: yeast display, Sf9 membrane polyspecificity reagent, FACS + sequencing; frameworks hold sequencing errors
# Summary of the method: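 Polyreactivity labels are assigned by the sorting gate from which each nanobody was recovered. The gates were low and high (top ~1%), set on anti-HA fluorescence for expression and streptavidin fluorescence for reagent binding. Before sorting, galactose-induced (36–48 hours) yeast display cells were stained for 1 hour at 4 °C with 10% biotinylated, detergent-solubilized Sf9 membrane reagent.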
row,Sequence,polyreactivity (PSR sort gate)
1,QVQLVESGGCLVQAGGSLRLSCAACGITFSGYDMGWYRQAPGKERELVADITISTGSTYYADSVKGRFTISRDNAKNTVYLQMNSLKPEDTAVYYCAASPFDYWYDYYGLYKEYYYWRQGTQVTVSS,low polyreactivity
2,QVQLVESGGCLVQAGGSLRLSCAASGFIFAYNAMGWYRQAPGKERELVAAISFSGGSTYYADSVKGRFTISRDTANNTVYLQMNSLKPEDTAVYYCAAVRYYWGQGTQVTVSS,high polyreactivity
3,QVQLVESGGCLVQAGGSLRLSCAASGFIFSYYTMGWYRQAPGKERALVAAISYSGGSTYYADSVKGRFTISRDNAKKTVYLQMNSLKPEDTAVYYCAAETYGYYVIRYDYWGQGTQVTVSS,high polyreactivity
4,QVQLVESGGCLVQAGGSLRLSCAASGFTFDIYAMGWYRQAPGKERELVATISRSGGTTYYADSVKGRFTISRDNAKNTVYLQMNCLKPEDTAVYYCAAAAYYYRYRYRMYYWGQGTQVTVSS,high polyreactivity
5,QVQLVESGGCLVQAGGSLRLSCAASGFTFYWYTMGWYRQAPGKERELVAAISRSGGDTDYADSVKGRFTISRDTAKNTVYLQMDSLQPEDTAVYYCNAGYFITHNYKYDYGGQGTQVTVSS,low polyreactivity
6,QVQLVESGGCLVQAGGSLRLSCAASGFTIWPNAMGWYRQAPGKERELVAAINWSGGATYYADSVKGRFTISRDNAKNSVYLHMNSLKPEDTAVYYCAAFSYDWYGGDEYWGKGTQVTVSS,low polyreactivity
7,QVQLVESGGCLVQAGGSLRLSCAASGIIFQGYVMGWYRQAPGKEREFVAAISRSGGTTFYADSVKGRFTISRDNAKNTVYLQMNSLKPVDTAVYSCNRARLGRPGYDYWGQGTQVTVTS,high polyreactivity
8,QVQLVESGGCLVQAGGSLRLSCAASGLIFRLYAMGWYRQAPGKERELVAAISVSGAITYYADSVKGRFTISRDKAKNTVYLQMNSLKPEDTAVYYCNAEAVFGRDGYVYWEVDYWGQGTQVTVSS,low polyreactivity
9,QVQLVESGGCLVQAGGSLRLSCAASGLTFAENAMGWYREAPGKERELVAAISASGGSTYYADSVKGRFTSSRDNAKNTVYLQMNSLKPEDTAVYYCATRVAFLWPRRDYDYWGQGTQVNVSS,low polyreactivity
10,QVQLVESGGCLVQAGGSLRLSCAASGRIFGSYAMGWYRHPPGKERELVAAISGSGGRTYYADSVKGRFTISRDNAKNTVYLQMNSLKPEDTAVYYCAADSQSFGYGYWGQGTQVTVSS,high polyreactivity
11,QVQLVESGGCLVQAGGSLRLSCAASGRIFGYYARGWYRQSAGKERELVAAITRNGGSTYYADSVKGRFTISRDNAKNTVYIQMISLKPVDTAVYYCYATKGGGRGYWCQGTQVTVSS,high polyreactivity
12,QVQLVESGGCLVQAGGSLRLSCAASGRIFPGYAMGWYRQAPGKEREFVAAITASGGTTYYADSVKGRFTISRDNAKNTVYLQMNSLKPEDTAVYYCAKYRYTVAGYNYWGQGTQVTVSS,high polyreactivity
13,QVQLVESGGCLVQAGGSLRLSCAASGRMFWSNARGWYRQARGYERELVAAMRNTGSTYYADSVKGRFTISRDNAKNTVYLQMNSLKPEETAVYYCATKPYPYYLYYYWGQGTQVTVSS,high polyreactivity
14,QVQLVESGGCLVQAGGSLRLSCAASGRTFFGYAMGWYRQAPGKERELVAALTRGGSTNYADSVKGRFTFSRDNAKNTVYLQMNSLKPEDTAVYYCNAERYRSRRYPYRYLYYYWGQGTQVTVSS,high polyreactivity
15,QVQLVESGGCLVQAGGSLRLSCAASGRTFFNYGMGWYRQAPGKEREFVARISFSGGSTYYADSVKGRFTISRDNAKNTVFLQMNSLIPEDTAVYYCNARVFPVAYRYGYWGQGTQVTVSS,high polyreactivity
16,QVQLVESGGCLVQAGGSLRLSCAASGRTFRYYAMGWYRQAPGKERELVAAITGGGGSTYYADSVKGRFTISRDNAKNTVYLQMNSLKPEDTAVYYCNKLRYKQWGAQYPMDYWGQGTQVTVSS,high polyreactivity
17,QVQLVESGGCLVQAGGSLRLSCAASGRTFSRNAMGWYRQAPGKERELVAAISQRGVYTYYADSVKGRFTISRDNAKNTVYLQMNRLKPEDSAVYYCNTRGTYRYDYWGQGTQVTVSS,low polyreactivity
18,QVQLVESGGCLVQAGGSLRLSCAASGRTFVGYVMGWSRQAPGKERELVAAIRTGGRTHYADSVKGRFTISRDNAKNTVYLQMNSLKPEDTAVYYCNARASYSWHGIRGNYDYWGQGTQVTVSS,high polyreactivity
19,QVQLVESGGCLVQAGGSLRLSCAASGRTFYGNDMGWYSQAPGTERELVAAISSSGGSTYYADSVKGRGTISRDNGKNTVYLQMKSLKPEDTAVYYCNAYWRGFRLSYYEDSYYWGQGTQVTVSS,high polyreactivity
20,QVQLVESGGCLVQAGGSLRLSCAASGRTFYINTMGWYRQAPGKEREFVAAIRFSSDSTYYADSVKGRYTISRDNAKNTVYLQMNSLKPEDTAVYYCATRTYAQRYGYWGQGTQVTVSS,high polyreactivity
21,QVQLVESGGCLVQAGGSLRLSCAASGRTFYTYAIGWYRQAPGQERELVAGIRTGGGSTYYADSVKGRFTISRDNAKNTVYLQMNSLKPEDTAVYYCAADTYDGYDYWGQGTQVTVSS,low polyreactivity
